# Data reported in the supplement of paper PMC10126150.
# ± gives the standard deviation of the averaged measurements.
# Test system: ATP
# Assay: switch fluorescence ratio, 500 uM ATP over buffer (Cy3 cluster intensity, sum of 5 cycles each) (fold (ratio)); higher = stronger signal-on switching upon ATP binding; sequences stand for … in TCGTCGGCAGCGTCAGATGTGTATAAGAGACAGTTTTTTTTTTTTTTTTTTTTTTTTT…TC
# Settings: aptamer strand: ATP DNA aptamer (quencher-CACCTGGGGGAGTATTGCGGAGGAAGG + anchor), 100 nM annealed; ATP concentration: 500 uM
# In short: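 Between each of five buffer/ATP cycles, the flow-cell was stripped with NaOH and re-annealed. Each cycle imaged Cy3-labelled switching-strand clusters, annealed to 100 nM quencher-labelled ATP aptamer on a modified Illumina MiSeq flow-cell, first in selection buffer and then after 15 min with 500 uM ATP at 22 °C. The fluorescence ratio is summed target-cycle over summed buffer-cycle Cy3 intensity per cluster, averaged per switch-domain sequence, with clusters outside 100-1000 RFU excluded.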
# 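Further: ATP exposure 15 min at 22 °C before imaging.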
row,Sequence,switch fluorescence ratio
1,CATTTGCGGA,0.981 ± 0.055
2,CATTTGTGGA,1.003 ± 0.0062
3,CATTTGTGGT,1.02 ± 0.014
4,CATTTTTATC,0.992 ± 0.012
5,CATTTTTGTA,0.986 ± 0.012
6,CCAAAAGGCT,1.08 ± 0.044
7,CCAAATGAAT,1.03 ± 0.025
8,CCAAATTGGG,1.016 ± 0.0048
9,CCAACAGGTT,1.69 ± 0.079
10,CCAACCTGAT,1.31 ± 0.18
11,CCAACTTTTC,1.0433 ± 0.00094
12,CCAAGCATAG,3.63 ± 0.47
13,CCAAGCATCG,1.197 ± 0.0062
14,CCAAGTAGTA,1.03 ± 0.032
15,CCAAGTGTGC,1.26 ± 0.17
16,CCAAGTTCTC,0.972 ± 0.021
17,CCAATAGTTC,1.08 ± 0.022
18,CCAATGACGT,0.979 ± 0.039
19,CCAATGTATG,0.998 ± 0.044
20,CCAATTATGT,1.01 ± 0.025
21,CCAATTTGGG,0.964 ± 0.029
22,CCACAATCAG,1.274 ± 0.012
23,CCACACGTTT,1.13 ± 0.076
24,CCACAGAGGG,1.21 ± 0.17
25,CCACATCCAT,1.044 ± 0.01
26,CCACCATATT,1.07 ± 0.039

row,Sequence,switch fluorescence ratio
1,CCACCGGGGC,2.3 ± 0.12
2,CCACGCCAGA,1.28 ± 0.052
3,CCACTAGACC,1.14 ± 0.026
4,CCACTTTGGG,1 ± 0.069
5,CCAGAACTTA,1.03 ± 0.026
6,CCAGAGGGTT,1.03 ± 0.031
7,CCAGATATCA,0.999 ± 0.054
8,CCAGCAGGTA,1.13 ± 0.064
9,CCAGCGCACG,1.541 ± 0.014
10,CCAGGAAACG,0.99 ± 0.072
11,CCAGGCACTG,1.03 ± 0.021
12,CCAGGCGGGG,0.9969 ± 0.0046
13,CCAGGCTATG,1.012 ± 0.0047
14,CCAGGCTGTT,1.07 ± 0.023
15,CCAGGGAGTG,1.04 ± 0.015
16,CCAGGGCGAA,1.064 ± 0.0056
17,CCAGGGGGCA,1.13 ± 0.14
18,CCAGGTATGA,1.03 ± 0.035
19,CCAGGTGGCA,2.83 ± 0.24
20,CCAGGTTATC,1.04 ± 0.032
21,CCAGTAGTCC,1.14 ± 0.0031
22,CCAGTAGTTA,0.999 ± 0.015
23,CCAGTATATT,1.02 ± 0.043
24,CCAGTATCTG,0.998 ± 0.013
25,CCAGTATGTT,0.993 ± 0.024
26,CCAGTGAATA,1.06 ± 0.021

row,Sequence,switch fluorescence ratio
1,CCAGTGTGAG,1.13 ± 0.039
2,CCAGTTAGGA,1.01 ± 0.033
3,CCAGTTGATA,0.991 ± 0.032
4,CCAGTTTCTG,1.02 ± 0.012
5,CCAGTTTTCC,1.01 ± 0.036
6,CCATATCCAA,1.06 ± 0.055
7,CCATATGT,0.985 ± 0.028
8,CCATCATAGA,0.9887 ± 0.0061
9,CCATCGTACC,1.3 ± 0.018
10,CCATCTAGTT,0.9681 ± 0.0047
11,CCATGACTCT,0.983 ± 0.016
12,CCATGGCCAC,1.0321 ± 0.00059
13,CCATGGCCTG,0.97 ± 0.042
14,CCATGGGGGT,1.16 ± 0.14
15,CCATGTGGG,1.02 ± 0.013
16,CCATGTGTGC,1.02 ± 0.027
17,CCATGTGTGT,1.0078 ± 7.5e-05
18,CCATTAAAAG,1 ± 0.052
19,CCATTAGGAG,0.988 ± 0.012
20,CCATTAGGGG,1.01 ± 0.044
21,CCATTAGTTG,0.998 ± 0.02
22,CCATTATTTT,1 ± 0.03
23,CCATTCTAGA,1.012 ± 0.0013
24,CCATTCTCTC,0.974 ± 0.082
25,CCATTGGGGT,0.995 ± 0.017
26,CCATTGTAAT,1.1 ± 0.024

row,Sequence,switch fluorescence ratio
1,CCATTGTGTG,0.98955 ± 0.00067
2,CCATTTGCGC,1.02 ± 0.034
3,CCATTTGTTG,0.971 ± 0.02
4,CCATTTTTAC,1.1 ± 0.13
5,CCCAAAATGC,2.87 ± 1.5
6,CCCAGGAGGC,1.08 ± 0.03
7,CCCATCCATC,1.03 ± 0.029
8,CCCATGTGAG,1.09 ± 0.022
9,CCCATTGTTT,1.01 ± 0.022
10,CCCATTTAGT,1.04 ± 0.023
11,CCCCAAGCAG,2.497 ± 0.0041
12,CCCCACTGTG,1.53 ± 0.69
13,CCCCAGGCAT,2.68 ± 0.5
14,CCCCCGGGGT,1.83 ± 0.38
15,CCCCGGATGG,1.26 ± 0.22
16,CCCCTGGATA,1.03 ± 0.043
17,CCCCTGGCAT,1.42 ± 0.022
18,CCCGCGGTGT,2.41 ± 0.19
19,CCCGCTAGTG,1.54 ± 0.12
20,CCCGGAAGGT,1.041 ± 0.0048
21,CCCGGGGGGT,1.56 ± 1
22,CCCGGGGGTT,1.14 ± 0.13
23,CCCGGGTAGG,1.041 ± 0.0026
24,CCCGTATACA,1.206 ± 0.0072
25,CCCTATCAAT,1.1 ± 0.038
26,CCCTATTTTT,1.01 ± 0.035

row,Sequence,switch fluorescence ratio
1,CCCTCTATTC,1.06 ± 0.03
2,CCCTGAGGGT,1.01 ± 0.023
3,CCCTTATGGT,0.9932 ± 0.0086
4,CCCTTGGATA,0.993 ± 0.021
5,CCCTTGTCCG,1.05 ± 0.037
6,CCCTTTTGGG,0.997 ± 0.035
7,CCGAACGTCG,1.88 ± 0.27
8,CCGAACTGAT,1.13 ± 0.027
9,CCGAAGGATT,1.022 ± 0.0044
10,CCGACGGAGG,1.99 ± 1.2
11,CCGAGAGAGC,1.13 ± 0.04
12,CCGAGAGGGC,1.15 ± 0.092
13,CCGAGGAAGC,1.34 ± 0.14
14,CCGAGTTAAG,1.08 ± 0.012
15,CCGATGGTCT,1.25 ± 0.072
16,CCGATGTGGT,1.57 ± 0.039
17,CCGATGTGTC,2.42 ± 0.52
18,CCGCCCGGAT,1.14 ± 0.018
19,CCGCGAGCTA,4.52 ± 1.1
20,CCGCGGCTTG,1.12 ± 0.053
21,CCGCTGGATG,1.202 ± 0.011
22,CCGCTGGGGG,1.177 ± 0.0036
23,CCGCTGGTGT,3.59 ± 0.29
24,CCGCTTGAGA,1.08 ± 0.025
25,CCGGACACGA,1.39 ± 0.042
26,CCGGACAGGT,1.13 ± 0.023

row,Sequence,switch fluorescence ratio
1,CCGGAGAGGG,1.7 ± 0.61
2,CCGGAGATCC,2.06 ± 0.22
3,CCGGATATGT,1.08 ± 0.046
4,CCGGATGGGT,1.012 ± 0.0037
5,CCGGATGGTG,1.017 ± 0.0044
6,CCGGCGGATT,1.08 ± 0.056
7,CCGGGAAAGC,1.18 ± 0.25
8,CCGGGAGGGG,1.11 ± 0.12
9,CCGGGAGTCG,1.06 ± 0.017
10,CCGGGCAAGA,5.5 ± 1.4
11,CCGGGCCGAA,1.05 ± 0.017
12,CCGGGGGAAT,1.13 ± 0.16
13,CCGGGGGTTT,1.036 ± 0.0054
14,CCGGGGTATT,1.07 ± 0.033
15,CCGGGGTGTA,1.32 ± 0.36
16,CCGGGGTTAG,1.38 ± 0.42
17,CCGGGGTTTT,1.11 ± 0.22
18,CCGGGTATGG,1.02 ± 0.016
19,CCGGGTGGGG,1.04 ± 0.03
20,CCGGTAGGCC,0.978 ± 0.033
21,CCGGTGGCTG,1 ± 0.033
22,CCGGTTGTGA,1.177 ± 0.0083
23,CCGGTTTCGT,1.26 ± 0.26
